# In publication PMC3474971:
# Target: thrombin (UniProt P00734;P00734 328-363;364-622)
# Assay: dye-displacement fluorescence; YOYO-1 25 nM, aptamer 10 nM; 20 mM Tris-Cl pH 7.5, 300 mM NaCl, 5 mM MgCl2, 10 mM KCl; 25 C; 30 min incubation with target before dye
binder,measurement,value
ATAGCGGAGGAAGGATACCTGGGGGAGTATAT (structured_DNA) [ATP aptamer],binding result,no binding
